Here are results for one substance from patent US20040001848.

For one data set, the target named is T1, β-casein (UniProt P02666).
T1 sequence: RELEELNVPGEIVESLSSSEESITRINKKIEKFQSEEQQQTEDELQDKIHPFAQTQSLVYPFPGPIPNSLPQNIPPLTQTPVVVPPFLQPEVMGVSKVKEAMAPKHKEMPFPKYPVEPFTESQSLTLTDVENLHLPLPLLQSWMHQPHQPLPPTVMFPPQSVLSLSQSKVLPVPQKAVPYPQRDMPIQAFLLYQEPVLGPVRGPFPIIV

In data set [1] the test system is myelin basic protein (MBP).
The target in data set [2] is bovine serum albumin (BSA) (UniProt P02769).
In another data set the target is ovalbumin (UniProt P01012).
Data set [3] relates to recombinant serum albumin.

Chain of ovalbumin (P01012 2-386): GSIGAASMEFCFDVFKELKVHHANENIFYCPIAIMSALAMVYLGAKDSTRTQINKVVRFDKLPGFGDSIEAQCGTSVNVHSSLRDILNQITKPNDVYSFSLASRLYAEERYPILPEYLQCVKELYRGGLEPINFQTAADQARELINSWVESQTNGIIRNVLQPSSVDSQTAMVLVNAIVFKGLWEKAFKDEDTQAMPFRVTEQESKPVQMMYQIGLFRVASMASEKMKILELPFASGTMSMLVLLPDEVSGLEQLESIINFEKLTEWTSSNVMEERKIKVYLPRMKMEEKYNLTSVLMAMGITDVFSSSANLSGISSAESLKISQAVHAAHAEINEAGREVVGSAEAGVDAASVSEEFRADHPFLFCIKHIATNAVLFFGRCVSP
Chain of bovine serum albumin (BSA) (P02769 25-607): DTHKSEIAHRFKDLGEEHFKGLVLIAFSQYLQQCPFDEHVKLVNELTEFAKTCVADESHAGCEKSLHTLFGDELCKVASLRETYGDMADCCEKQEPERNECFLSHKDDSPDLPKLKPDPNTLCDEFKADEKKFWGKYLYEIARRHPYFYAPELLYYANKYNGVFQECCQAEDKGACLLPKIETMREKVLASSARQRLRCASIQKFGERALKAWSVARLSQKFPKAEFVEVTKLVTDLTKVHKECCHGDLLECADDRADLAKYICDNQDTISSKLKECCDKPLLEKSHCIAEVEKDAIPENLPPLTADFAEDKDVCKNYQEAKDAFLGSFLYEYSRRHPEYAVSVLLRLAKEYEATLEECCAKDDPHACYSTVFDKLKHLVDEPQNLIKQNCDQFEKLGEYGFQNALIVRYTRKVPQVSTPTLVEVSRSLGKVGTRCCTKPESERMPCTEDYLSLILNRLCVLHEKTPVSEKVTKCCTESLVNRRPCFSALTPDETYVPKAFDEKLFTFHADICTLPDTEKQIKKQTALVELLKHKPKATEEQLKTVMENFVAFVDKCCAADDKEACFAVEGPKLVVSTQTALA

In the case of “recombinant 6×-His-TGase fusion protein of Streptomyces mobaraensis ATCC 29032”, in the data set with β-casein, the “cross-linking of a mixture of β-casein and glucose oxidase on SDS-PAGE” value is recorded as “both protein species can be cross-linked by the purified recombinant SM TGase”; the “cross-linking of β-casein on SDS-PAGE” value is recorded as “the cross-linked (CL) β-casein migrated as a smear on the SDS-PAGE gel indicating a mixture of high molecular weight polymers of different length”; the “cross-linking of β-casein on SDS-PAGE, 0 mM DTT” value is listed as “had no cross-linking activity on β-casein”; the “cross-linking of β-casein on SDS-PAGE, about 2 mM DTT” value was “β-casein run as a mixture of cross-linked polymer and monomer”. Also, the “cross-linking of β-casein on SDS-PAGE, about 10 mM DTT” value with β-casein is reported as “cross-linking of all detectable β-casein substrates in the reaction”. The “cross-linking of native protein” value in data set [1] is “there was no cross-linking”. Further, the “cross-linking of native protein” value in data set [2] is “there was no cross-linking”. Besides, the “cross-linking of BSA5 peptide on SDS-PAGE” value with BSA5 peptide is reported as “increased amount of recombinant SM TGase corresponding to an increase in cross-linked (CL) BSA5 peptide”. Moreover, the “cross-linking of β-amyloid (1-42) peptide on SDS-PAGE, 1 to 3 hours” value with β-amyloid peptide (1-42) is listed as “can be cross-linked by the recombinant transglutaminase as shown as a smear of a mixture of cross-linked peptides”. Also, the “cross-linking of native protein” value in the data set with ovalbumin is given as “there was no cross-linking”. Moreover, the “cross-linking of recombinant serum albumin on SDS-PAGE” value in data set [3] is on record as “revealed a mixture of very high molecular weight polymers of different length”. In the data set on histone H3 protein, the “cross-linking of native protein” value is given as “there was no cross-linking”; the “cross-linking of native protein on SDS-PAGE” value was “complete and partial cross-linking was both observed for native histine H3 protein under the condition tested”.
